Experimental data as given in US20060286066A1 (published 2006).

T1: TNF receptor 1 Fc fusion protein (R&D Systems) (human, UniProt P19438 30-211, limits assumed)
T1 construct: also called recombinant TNF receptor 1 (p55); not shown: Fc part of the bought fusion protein, captured by an anti-human Fc antibody
T1 sequence (looked up): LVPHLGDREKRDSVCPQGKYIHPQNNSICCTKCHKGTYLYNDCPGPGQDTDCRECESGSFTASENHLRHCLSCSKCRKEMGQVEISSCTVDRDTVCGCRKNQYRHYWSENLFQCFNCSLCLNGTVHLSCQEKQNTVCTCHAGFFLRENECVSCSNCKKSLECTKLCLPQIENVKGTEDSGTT

T2: Biotinylated human TNFRI (human, UniProt P19438 30-211, limits assumed, biotinylated (approx 1 biotin per molecule))
T2 sequence (looked up): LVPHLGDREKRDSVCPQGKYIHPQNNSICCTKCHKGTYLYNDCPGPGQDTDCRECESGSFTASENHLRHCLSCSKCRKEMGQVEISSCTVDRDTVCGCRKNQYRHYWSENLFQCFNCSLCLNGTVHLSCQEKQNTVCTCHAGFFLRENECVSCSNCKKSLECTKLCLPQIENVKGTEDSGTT


What was measured:
[1] = target: p55 TNF-α receptor on MRC-5 cells (human) (UniProt P19438); test: cell-based or functional assay
[2] = target: T1, TNF receptor 1 Fc fusion protein (R&D …); test: DOM1 receptor binding assay (RBA): dAb titrated against TNF binding to TNF receptor 1
Description: Assays for the measurement of receptor binding by a ligand, e.g., a cytokine, are known in the art. […] Briefly, Maxisorp plates are incubated overnight with […] anti-human Fc mouse monoclonal antibody (Zymed, San Francisco, USA). […] The plate is washed to remove any unbound protein before the detection step. […] The reaction is stopped by the addition of HCl and the absorbance is read at 450 nm.

[3] = target: T2, Biotinylated human TNFRI; test: SPR (Biacore), biotinylated human TNFRI on streptavidin chip, dAb injected
Description: (§1) The effect of PEGylation on the binding affinity of TAR2-10-27 for its antigen was investigated using Biacore. All the PEGylated formats were generated using TAR2-10-27cys (see Example 2). The following methodology was used to determine the on and off rates of each PEGylated dAb format for the antigen. Biotinylated human TNFRI (approx 1 biotin per molecule) was coated onto a single flow cell of a Biacore streptavidin sensor chip at a density of approximately 400 RU. A concentration series of each dAb or PEGylated dAb (2.6 μM, 770 nM, 260 nM, 77 nM and 2.6 nM) was sequentially injected (45 μl injection at a flow rate of 30 μl/min) over both the TNFRI coated flow cell and an uncoated flow cell (streptavidin), (a subtractive curve was generated by subtracting the uncoated flow cell curve from the TNFRI flow cell curve). The off-rate was analysed for five minutes after the injection of each sample after which the surface was regenerated by injection of 10 mM glycine pH 3.
(§2) Data generated from the Biacore was fitted using the curve fitting software (Biaevaluation 3.2) and the association constant (kₐ) and dissociation constant (kd) determined (Table 8).

[4] = target: T2, Biotinylated human TNFRI; test: SPR (Biacore), biotinylated human TNFRI on streptavidin chip, dAb injected; KD from mean kd/ka
Description: as §1, §2

[5] = target: T1, TNF receptor 1 Fc fusion protein (R&D …); test: TNF receptor binding assay: dAb titrated against TNF binding to TNF receptor 1
[6] = target: hen egg white lysozyme (hen, UniProt P00698 19-147); test: batch binding to lysozyme-Sepharose affinity resin, SDS-PAGE read-out
Description: A HEL4 affinity based resin (based on the antigen, hen egg white lysozyme) was produced to test the functionality of the PEGylated dAb. Lysozyme was coupled to NETS activated Sepharose 4B resin (Amersham Pharmacia) following the manufacturer's instructions. The PEGylated samples (5 μg) were then mixed with the affinity resin (100 μl) and allowed to bind in PBS at room temperature for 30 mins. The resin was then extensively washed with PBS (3×1 ml) to remove unbound protein. The affinity resin was then run on a SDS-PAGE to determine if the PEGylated HEL4 had bound to the matrix (see Section 8.3).

p55 TNF-α receptor on MRC-5 cells (human), sequence (P19438 30-455): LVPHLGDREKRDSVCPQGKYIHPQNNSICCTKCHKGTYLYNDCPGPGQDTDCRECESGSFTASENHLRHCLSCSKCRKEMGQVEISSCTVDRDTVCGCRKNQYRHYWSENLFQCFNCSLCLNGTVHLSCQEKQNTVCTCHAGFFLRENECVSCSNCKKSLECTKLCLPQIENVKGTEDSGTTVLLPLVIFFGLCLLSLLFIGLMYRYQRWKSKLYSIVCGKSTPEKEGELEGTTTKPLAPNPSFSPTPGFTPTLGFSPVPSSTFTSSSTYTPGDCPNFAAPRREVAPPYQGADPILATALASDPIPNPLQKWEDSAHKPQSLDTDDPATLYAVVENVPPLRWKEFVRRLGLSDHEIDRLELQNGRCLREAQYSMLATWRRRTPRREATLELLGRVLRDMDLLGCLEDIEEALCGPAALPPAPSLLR
hen egg white lysozyme, sequence (P00698 19-147 limits assumed): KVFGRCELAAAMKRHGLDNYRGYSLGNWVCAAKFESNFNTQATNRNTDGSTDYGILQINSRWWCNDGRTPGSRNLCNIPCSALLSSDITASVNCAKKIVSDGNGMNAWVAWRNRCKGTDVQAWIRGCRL

| Binder | MRC5 cell assay ND 50 [1] [nM] | IC50 [2] [nM] | other results |
| --- | --- | --- | --- |
| TAR2-10-27 Asp62cys blocked (other, Cys62 blocked with N-ethylmaleimide, For numbering and entry offset see m28) VH: ASTEVQLLESGGGLVQPGGSLRLSCAASGFTFEWYWMGWVRQAPGKGLEWVSAISGSGGSTYYACSVKGRFTISRDNSKNTLYLQMNSLRAEDAAVYYCAKVKLGGGPNFGYRGQGTLVTVSS | 430 | 15 | – |
| TAR2-10-27 Gln13cys 30K MAL PEG (other, 30K MAL-PEG on Cys13, For numbering and entry offset see m28) VH: ASTEVQLLESGGGLVCPGGSLRLSCAASGFTFEWYWMGWVRQAPGKGLEWVSAISGSGGSTYYADSVKGRFTISRDNSKNTLYLQMNSLRAEDAAVYYCAKVKLGGGPNFGYRGQGTLVTVSS | 200 | 8 | – |
| TAR2-10-27 Gln13cys blocked (other, Cys13 blocked with N-ethylmaleimide, For numbering and entry offset see m28) VH: ASTEVQLLESGGGLVCPGGSLRLSCAASGFTFEWYWMGWVRQAPGKGLEWVSAISGSGGSTYYADSVKGRFTISRDNSKNTLYLQMNSLRAEDAAVYYCAKVKLGGGPNFGYRGQGTLVTVSS | 30 | 2 | – |
| TAR2-10-27 Gln112cys 30K MAL PEG (other, 30K MAL-PEG on Cys112, For numbering and entry offset see m28) VH: ASTEVQLLESGGGLVQPGGSLRLSCAASGFTFEWYWMGWVRQAPGKGLEWVSAISGSGGSTYYADSVKGRFTISRDNSKNTLYLQMNSLRAEDAAVYYCAKVKLGGGPNFGYRGCGTLVTVSS | 650 | 15 | – |
| TAR2-10-27 Gln112cys blocked (other, Cys112 blocked with N-ethylmaleimide, For numbering and entry offset see m28) VH: ASTEVQLLESGGGLVQPGGSLRLSCAASGFTFEWYWMGWVRQAPGKGLEWVSAISGSGGSTYYADSVKGRFTISRDNSKNTLYLQMNSLRAEDAAVYYCAKVKLGGGPNFGYRGCGTLVTVSS | 15 | 2 | – |
| TAR2-10-27 Glu89cys 30K MAL PEG (other, 30K MAL-PEG on Cys89, For numbering and entry offset see m28) VH: ASTEVQLLESGGGLVQPGGSLRLSCAASGFTFEWYWMGWVRQAPGKGLEWVSAISGSGGSTYYADSVKGRFTISRDNSKNTLYLQMNSLRACDAAVYYCAKVKLGGGPNFGYRGQGTLVTVSS | 100 | 20 | – |
| TAR2-10-27 Glu89cys blocked (other, Cys89 blocked with N-ethylmaleimide, For numbering and entry offset see m28) VH: ASTEVQLLESGGGLVQPGGSLRLSCAASGFTFEWYWMGWVRQAPGKGLEWVSAISGSGGSTYYADSVKGRFTISRDNSKNTLYLQMNSLRACDAAVYYCAKVKLGGGPNFGYRGQGTLVTVSS | 70 | 3 | – |
| TAR2-10-27 Leu115cys 30K MAL PEG (other, 30K MAL-PEG on Cys115, For numbering and entry offset see m28) VH: ASTEVQLLESGGGLVQPGGSLRLSCAASGFTFEWYWMGWVRQAPGKGLEWVSAISGSGGSTYYADSVKGRFTISRDNSKNTLYLQMNSLRAEDAAVYYCAKVKLGGGPNFGYRGQGTCVTVSS | 300 | 10 | – |
| TAR2-10-27 Leu115cys blocked (other, Cys115 blocked with N-ethylmaleimide, For numbering and entry offset see m28) VH: ASTEVQLLESGGGLVQPGGSLRLSCAASGFTFEWYWMGWVRQAPGKGLEWVSAISGSGGSTYYADSVKGRFTISRDNSKNTLYLQMNSLRAEDAAVYYCAKVKLGGGPNFGYRGQGTCVTVSS | 30 | 3 | – |
| TAR2-10-27 Pro41cys 30K MAL PEG (other, 30K MAL-PEG on Cys41, For numbering and entry offset see m28) VH: ASTEVQLLESGGGLVQPGGSLRLSCAASGFTFEWYWMGWVRQACGKGLEWVSAISGSGGSTYYADSVKGRFTISRDNSKNTLYLQMNSLRAEDAAVYYCAKVKLGGGPNFGYRGQGTLVTVSS | 200 | 8 | – |
| TAR2-10-27 Pro41cys blocked (other, Cys41 blocked with N-ethylmaleimide, For numbering and entry offset see m28) VH: ASTEVQLLESGGGLVQPGGSLRLSCAASGFTFEWYWMGWVRQACGKGLEWVSAISGSGGSTYYADSVKGRFTISRDNSKNTLYLQMNSLRAEDAAVYYCAKVKLGGGPNFGYRGQGTLVTVSS | 45 | 1 | – |
| TAR2-10-27 Ser120cys 30K MAL PEG (other, 30K MAL-PEG on the C-terminal Cys (Ser120cys), TAR2-10-27 cys; For the limits of the entry see m36; also called TAR210-27 30K MAL PEG) VH: ASTEVQLLESGGGLVQPGGSLRLSCAASGFTFEWYWMGWVRQAPGKGLEWVSAISGSGGSTYYADSVKGRFTISRDNSKNTLYLQMNSLRAEDAAVYYCAKVKLGGGPNFGYRGQGTLVTVSC | 600 | 10 | koff [3]: 0.00769 s⁻¹; kon [3]: 83400 M⁻¹ s⁻¹; Kd [4]: 92.2 nM |
| TAR2-10-27 Ser120cys blocked (other, C-terminal Cys (Ser120cys) blocked with N-ethylmaleimide, TAR2-10-27 cys; the entry already carries Ser120cys) VH: ASTEVQLLESGGGLVQPGGSLRLSCAASGFTFEWYWMGWVRQAPGKGLEWVSAISGSGGSTYYADSVKGRFTISRDNSKNTLYLQMNSLRAEDAAVYYCAKVKLGGGPNFGYRGQGTLVTVSC | 30 | 3 | koff [3]: 0.00596 s⁻¹; kon [3]: 577000 M⁻¹ s⁻¹; Kd [4]: 10.3 nM |
| TAR2-10-27 Thr117cys 30K MAL PEG (other, 30K MAL-PEG on Cys117, For numbering and entry offset see m28) VH: ASTEVQLLESGGGLVQPGGSLRLSCAASGFTFEWYWMGWVRQAPGKGLEWVSAISGSGGSTYYADSVKGRFTISRDNSKNTLYLQMNSLRAEDAAVYYCAKVKLGGGPNFGYRGQGTLVCVSS | 700 | 8 | – |
| TAR2-10-27 Thr117cys blocked (other, Cys117 blocked with N-ethylmaleimide, For numbering and entry offset see m28) VH: ASTEVQLLESGGGLVQPGGSLRLSCAASGFTFEWYWMGWVRQAPGKGLEWVSAISGSGGSTYYADSVKGRFTISRDNSKNTLYLQMNSLRAEDAAVYYCAKVKLGGGPNFGYRGQGTLVCVSS | 30 | 3 | – |
| TAR210-27 2 × 10K MAL PEG (other, 2 × 10K MAL-PEG on the C-terminal Cys (Ser120cys), For the limits of the entry see m36) VH: ASTEVQLLESGGGLVQPGGSLRLSCAASGFTFEWYWMGWVRQAPGKGLEWVSAISGSGGSTYYADSVKGRFTISRDNSKNTLYLQMNSLRAEDAAVYYCAKVKLGGGPNFGYRGQGTLVTVSC | – | – | koff [3]: 0.00954 s⁻¹; kon [3]: 120000 M⁻¹ s⁻¹; Kd [4]: 79.5 nM |
| TAR210-27 2 × 20K MAL PEG (other, 2 × 20K (40K branched) MAL-PEG on the C-terminal Cys (Ser120cys), For the limits of the entry see m36; also called 40K PEGylated monomer (TAR2-10-27)) VH: ASTEVQLLESGGGLVQPGGSLRLSCAASGFTFEWYWMGWVRQAPGKGLEWVSAISGSGGSTYYADSVKGRFTISRDNSKNTLYLQMNSLRAEDAAVYYCAKVKLGGGPNFGYRGQGTLVTVSC | – | – | IC50 [5]: ~20 nM; koff [3]: 0.00517 s⁻¹; kon [3]: 74700 M⁻¹ s⁻¹; Kd [4]: 69.2 nM |
| TAR210-27 5K MAL PEG (other, 5K MAL-PEG on the C-terminal Cys (Ser120cys), For the limits of the entry see m36) VH: ASTEVQLLESGGGLVQPGGSLRLSCAASGFTFEWYWMGWVRQAPGKGLEWVSAISGSGGSTYYADSVKGRFTISRDNSKNTLYLQMNSLRAEDAAVYYCAKVKLGGGPNFGYRGQGTLVTVSC | – | – | koff [3]: 0.011 s⁻¹; kon [3]: 90000 M⁻¹ s⁻¹; Kd [4]: 122 nM |
| TAR210-27 20K MAL PEG (other, 20K MAL-PEG on the C-terminal Cys (Ser120cys), For the limits of the entry see m36) VH: ASTEVQLLESGGGLVQPGGSLRLSCAASGFTFEWYWMGWVRQAPGKGLEWVSAISGSGGSTYYADSVKGRFTISRDNSKNTLYLQMNSLRAEDAAVYYCAKVKLGGGPNFGYRGQGTLVTVSC | – | – | koff [3]: 0.012 s⁻¹; kon [3]: 79900 M⁻¹ s⁻¹; Kd [4]: 150 nM |
| TAR2-10-27 Asp62cys 30K MAL PEG (protein, 30K MAL-PEG on Cys62) VH: ASTEVQLLESGGGLVQPGGSLRLSCAASGFTFEWYWMGWVRQAPGKGLEWVSAISGSGGSTYYACSVKGRFTISRDNSKNTLYLQMNSLRAEDAAVYYCAKVKLGGGPNFGYRGQGTLVTVSS | 1000 | – | – |
| HEL4 PEGylated with SPA-PEG (other, SPA-PEG on surface lysine residues (sites not given), also called PEGylated HEL4) VH: EVQLLESGGGLVQPGGSLRLSCAASGFRISDEDMGWVRQAPGKGLEWVSSIYGPSGSTYYADSVKGRFTISRDNSKNTLYLQMNSLRAEDTAVYYCASALEPLSEPLGFWGQGTLVTVSS | – | – | binding result [6]: binds |
| HEL4 PEGylated with NHS-PEG (other, NHS-PEG on surface lysine residues (sites not given), also called PEGylated HEL4; HEL4 40K PEG-NHS) VH: EVQLLESGGGLVQPGGSLRLSCAASGFRISDEDMGWVRQAPGKGLEWVSSIYGPSGSTYYADSVKGRFTISRDNSKNTLYLQMNSLRAEDTAVYYCASALEPLSEPLGFWGQGTLVTVSS | – | – | binding result [6]: binds |
